B1: glmS ribozyme (parent)
chain: AUAAAAGCGCCAGAACUACAGAAAUGUAGUUGACGAGGAGGAGGUUUAUCGAAUUUUCGGCGGAUGCCUCCAAA

± gives the standard error. This sample holds only a part of the variants without activity.

Common to all, as to details: with glucosamine-6-phosphate
In series [1] the parent is B1. Nature of the series: self-cleavage kobs at 40 uM GlcN6P; higher = faster cleavage; RNA array. The procedure, abridged: (§1)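 Ribozyme variants carrying barcodes were transcribed in situ on sequenced MiSeq chips by E. coli RNA polymerase and tracked at 37 °C with a hybridised Cy3 probe. They were exposed to 40 μM to 10 mM glucosamine-6-phosphate in HEPES/KCl/Mg(OAc)2 buffer. kobs came from exponential decay fits of normalised per-tile medians, and kcat and KM from weighted Michaelis–Menten fits.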

Variants of B1 are the subject of series [2]. Nature of the series: self-cleavage kobs at 10000 uM GlcN6P; higher = faster cleavage; RNA array. The procedure, abridged:
as §1

The variants in series [3] derive from B1. In words: self-cleavage kobs at 160 uM GlcN6P; higher = faster cleavage; RNA array. A digest of the protocol: as §1
In series [4] the parent is B1. In words: self-cleavage kobs at 640 uM GlcN6P; higher = faster cleavage; RNA array. The procedure, abridged:
as §1

In series [5] the parent is B1. In words: self-cleavage kobs at 2500 uM GlcN6P; higher = faster cleavage; RNA array. The procedure, abridged: as §1

Take A12C U31A G32C C34A U47A C71U: the “self-cleavage kobs at 40 uM GlcN6P” value in the series with glucosamine-6-phosphate [1] was under 1e-05 s⁻¹. Also, in the series with glucosamine-6-phosphate [2], the “self-cleavage kobs at 10000 uM GlcN6P” value is under 1e-05 s⁻¹.
With A52G G60C, in the series with glucosamine-6-phosphate [1], the “self-cleavage kobs at 40 uM GlcN6P” value is under 1e-05 s⁻¹. In addition, the “self-cleavage kobs at 160 uM GlcN6P” value in the series with glucosamine-6-phosphate [3] was under 1e-05 s⁻¹. In the series with glucosamine-6-phosphate [4], the “self-cleavage kobs at 640 uM GlcN6P” value is under 1e-05 s⁻¹. For the same variant, in the series with glucosamine-6-phosphate [5], the “self-cleavage kobs at 2500 uM GlcN6P” value was under 1e-05 s⁻¹.
Consider G29C U65C, for which, in the series with glucosamine-6-phosphate [1], the “self-cleavage kobs at 40 uM GlcN6P” value was under 1e-05 s⁻¹. Further, the “self-cleavage kobs at 160 uM GlcN6P” value with glucosamine-6-phosphate [3] is under 1e-05 s⁻¹.
For the variant A36C U49C U65A, the “self-cleavage kobs at 40 uM GlcN6P” value with glucosamine-6-phosphate [1] was under 1e-05 s⁻¹. Besides, in the series with glucosamine-6-phosphate [2], the “self-cleavage kobs at 10000 uM GlcN6P” value was under 1e-05 s⁻¹.
For G7A G37C A42U, in the series with glucosamine-6-phosphate [1], the “self-cleavage kobs at 40 uM GlcN6P” value was under 1e-05 s⁻¹. Further, in the series with glucosamine-6-phosphate [4], the “self-cleavage kobs at 640 uM GlcN6P” value is under 1e-05 s⁻¹. For the same variant, the “self-cleavage kobs at 2500 uM GlcN6P” value with glucosamine-6-phosphate [5] was under 1e-05 s⁻¹. In addition, the “self-cleavage kobs at 10000 uM GlcN6P” value with glucosamine-6-phosphate [2] was under 1e-05 s⁻¹.
As to A42C G51C, in the series with glucosamine-6-phosphate [1], the “self-cleavage kobs at 40 uM GlcN6P” value was under 1e-05 s⁻¹. In addition, in the series with glucosamine-6-phosphate [3], the “self-cleavage kobs at 160 uM GlcN6P” value was under 1e-05 s⁻¹. In the series with glucosamine-6-phosphate [4], the “self-cleavage kobs at 640 uM GlcN6P” value is under 1e-05 s⁻¹. Also, the “self-cleavage kobs at 10000 uM GlcN6P” value in the series with glucosamine-6-phosphate [2] is under 1e-05 s⁻¹.
Turning to C61G C71G, in the series with glucosamine-6-phosphate [1], the “self-cleavage kobs at 40 uM GlcN6P” value is 3.55e-05 ± 1.3e-05 s⁻¹. Also, the “self-cleavage kobs at 160 uM GlcN6P” value in the series with glucosamine-6-phosphate [3] stood at 0.000119 ± 3e-05 s⁻¹. Further, in the series with glucosamine-6-phosphate [4], the “self-cleavage kobs at 640 uM GlcN6P” value is 7.69e-05 ± 2.5e-05 s⁻¹. For the same variant, the “self-cleavage kobs at 2500 uM GlcN6P” value with glucosamine-6-phosphate [5] is 4.16e-05 ± 1.6e-05 s⁻¹.
In the case of G13U A52U C70G, in the series with glucosamine-6-phosphate [1], the “self-cleavage kobs at 40 uM GlcN6P” value was under 1e-05 s⁻¹.
With G13A A15U A33U G37U U46C U49A, the “self-cleavage kobs at 40 uM GlcN6P” value in the series with glucosamine-6-phosphate [1] is under 1e-05 s⁻¹. Moreover, the “self-cleavage kobs at 2500 uM GlcN6P” value in the series with glucosamine-6-phosphate [5] is under 1e-05 s⁻¹.
U49C C61A C70U: the “self-cleavage kobs at 40 uM GlcN6P” value with glucosamine-6-phosphate [1] is under 1e-05 s⁻¹. Besides, the “self-cleavage kobs at 10000 uM GlcN6P” value in the series with glucosamine-6-phosphate [2] is under 1e-05 s⁻¹.
Regarding A6G C11G A42U, the “self-cleavage kobs at 40 uM GlcN6P” value with glucosamine-6-phosphate [1] is under 1e-05 s⁻¹. The “self-cleavage kobs at 2500 uM GlcN6P” value in the series with glucosamine-6-phosphate [5] is under 1e-05 s⁻¹. Besides, the “self-cleavage kobs at 10000 uM GlcN6P” value in the series with glucosamine-6-phosphate [2] was under 1e-05 s⁻¹.
In the case of C16U G40U C68G, the “self-cleavage kobs at 40 uM GlcN6P” value with glucosamine-6-phosphate [1] is under 1e-05 s⁻¹. Besides, the “self-cleavage kobs at 160 uM GlcN6P” value in the series with glucosamine-6-phosphate [3] was under 1e-05 s⁻¹. In addition, in the series with glucosamine-6-phosphate [2], the “self-cleavage kobs at 10000 uM GlcN6P” value is under 1e-05 s⁻¹.
For G32A G63U, the “self-cleavage kobs at 40 uM GlcN6P” value with glucosamine-6-phosphate [1] was under 1e-05 s⁻¹. The “self-cleavage kobs at 160 uM GlcN6P” value with glucosamine-6-phosphate [3] was under 1e-05 s⁻¹. For the same variant, in the series with glucosamine-6-phosphate [5], the “self-cleavage kobs at 2500 uM GlcN6P” value is under 1e-05 s⁻¹. Further, the “self-cleavage kobs at 10000 uM GlcN6P” value in the series with glucosamine-6-phosphate [2] is under 1e-05 s⁻¹.
For G7U A52G C68G, in the series with glucosamine-6-phosphate [1], the “self-cleavage kobs at 40 uM GlcN6P” value was 0.000127 ± 4.6e-05 s⁻¹. The “self-cleavage kobs at 10000 uM GlcN6P” value with glucosamine-6-phosphate [2] stood at 0.000484 ± 0.00022 s⁻¹.
As for G13U G59U, the “self-cleavage kobs at 40 uM GlcN6P” value with glucosamine-6-phosphate [1] was under 1e-05 s⁻¹. Moreover, the “self-cleavage kobs at 160 uM GlcN6P” value with glucosamine-6-phosphate [3] was under 1e-05 s⁻¹. Besides, the “self-cleavage kobs at 640 uM GlcN6P” value in the series with glucosamine-6-phosphate [4] is under 1e-05 s⁻¹. In addition, the “self-cleavage kobs at 10000 uM GlcN6P” value with glucosamine-6-phosphate [2] was under 1e-05 s⁻¹.
C10G A14C A36G U55A C71U: the “self-cleavage kobs at 40 uM GlcN6P” value in the series with glucosamine-6-phosphate [1] is under 1e-05 s⁻¹.
Still for that read-out and setting: then G13U A48G U65C U69G, with under 1e-05 s⁻¹.
G35C U57A: in the series with glucosamine-6-phosphate [1], the “self-cleavage kobs at 40 uM GlcN6P” value is under 1e-05 s⁻¹. In addition, the “self-cleavage kobs at 160 uM GlcN6P” value in the series with glucosamine-6-phosphate [3] was under 1e-05 s⁻¹. Moreover, in the series with glucosamine-6-phosphate [4], the “self-cleavage kobs at 640 uM GlcN6P” value was under 1e-05 s⁻¹. Further, the “self-cleavage kobs at 2500 uM GlcN6P” value with glucosamine-6-phosphate [5] is under 1e-05 s⁻¹.
Regarding G7C A52U, in the series with glucosamine-6-phosphate [1], the “self-cleavage kobs at 40 uM GlcN6P” value was under 1e-05 s⁻¹. Besides, the “self-cleavage kobs at 160 uM GlcN6P” value in the series with glucosamine-6-phosphate [3] is under 1e-05 s⁻¹. Moreover, in the series with glucosamine-6-phosphate [4], the “self-cleavage kobs at 640 uM GlcN6P” value was under 1e-05 s⁻¹. Further, in the series with glucosamine-6-phosphate [5], the “self-cleavage kobs at 2500 uM GlcN6P” value is under 1e-05 s⁻¹. The “self-cleavage kobs at 10000 uM GlcN6P” value in the series with glucosamine-6-phosphate [2] is under 1e-05 s⁻¹.
With G7C A48U, the “self-cleavage kobs at 40 uM GlcN6P” value in the series with glucosamine-6-phosphate [1] is under 1e-05 s⁻¹. Besides, the “self-cleavage kobs at 160 uM GlcN6P” value in the series with glucosamine-6-phosphate [3] is under 1e-05 s⁻¹. In addition, the “self-cleavage kobs at 2500 uM GlcN6P” value with glucosamine-6-phosphate [5] was under 1e-05 s⁻¹. Besides, the “self-cleavage kobs at 10000 uM GlcN6P” value in the series with glucosamine-6-phosphate [2] is under 1e-05 s⁻¹.
For the variant G7A C8G G9C C10G A12C G13A A14G C16A U17C U31A, the “self-cleavage kobs at 40 uM GlcN6P” value in the series with glucosamine-6-phosphate [1] amounted to 0.000115 ± 4.2e-05 s⁻¹. Besides, the “self-cleavage kobs at 10000 uM GlcN6P” value with glucosamine-6-phosphate [2] stood at 0.00555 ± 0.0017 s⁻¹.
Taken in the same sequence, the figures for U31G A36G U69A were under 1e-05 s⁻¹ and under 1e-05 s⁻¹.
Consider A36C A42U, for which the “self-cleavage kobs at 40 uM GlcN6P” value in the series with glucosamine-6-phosphate [1] is under 1e-05 s⁻¹.
